How the values were obtained:
[1] = target: trypsin (serine protease); assay: phage ELISA, trypsin coated in well, phage diluted 1 in 100, anti-M13/HRP detection
[2] = target: T1, papain (cysteine protease) (UniProt P00784); assay: phage ELISA, papain coated in well, phage diluted 1 in 100, anti-M13/HRP detection
T1 sequence (looked up): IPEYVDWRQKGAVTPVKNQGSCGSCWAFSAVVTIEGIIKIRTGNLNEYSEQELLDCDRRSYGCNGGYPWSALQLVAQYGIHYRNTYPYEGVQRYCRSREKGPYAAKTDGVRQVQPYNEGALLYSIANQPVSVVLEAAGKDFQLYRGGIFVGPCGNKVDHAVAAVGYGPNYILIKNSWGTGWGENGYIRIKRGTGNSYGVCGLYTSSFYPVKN

[3] = target: POP-1 protein: Brassica napus Sta 44G(2) / Sitophilus zeamais SCPc1 protease translational fusion (Brassica napus; Sitophilus zeamais); assay: cell-based or functional assay
[4] = target: T1, papain (cysteine protease); assay: cell-based or functional assay
[5] = target: T2, OV7/GST (cysteine protease inhibitor OV7 conjugated to GST), P22085
T2 chain: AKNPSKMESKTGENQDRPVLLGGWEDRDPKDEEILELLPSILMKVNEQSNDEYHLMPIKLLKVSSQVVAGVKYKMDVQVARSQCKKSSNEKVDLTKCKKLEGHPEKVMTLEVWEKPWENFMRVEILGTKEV

[6] = target: T3, POV-1 protein: Brassica napus Sta 44G(2) / Onchocerca volvulus OV7 protease inhibitor translational fusion, P22085
T3 chain: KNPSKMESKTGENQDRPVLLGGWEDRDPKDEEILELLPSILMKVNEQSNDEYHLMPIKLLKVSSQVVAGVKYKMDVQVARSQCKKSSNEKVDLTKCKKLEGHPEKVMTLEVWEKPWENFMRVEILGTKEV

Molecule: M13 wild type or control phage not displaying any foreign protein
- O.D.410 (O.D. at 410 nm) [1]: 0.026
- O.D.410 (O.D. at 410 nm) [2]: 0.043

B1: POV-1 protein: Brassica napus Sta 44G(2) / Onchocerca volvulus OV7 protease inhibitor translational fusion (protein)
chain: T3 chain
- Percent Loss of Viability (Alexander staining of pollen, F1 plant POP 2 X POV 20 No. 2) [3]: 19%
- Percent Loss of Viability (Alexander staining of pollen, F1 plant POP 2 X POV 20 No. 3) [3]: 21%
- Percent Loss of Viability (Alexander staining of pollen, F1 plant POP 12 X POV 20 No. 1) [3]: 66%
- Percent Loss of Viability (Alexander staining of pollen, F1 plant POP 12 X POV 20 No. 4) [3]: 58%
- Percent Loss of Viability (Alexander staining of pollen, F1 plant POP 12 X POV 25 No. 1) [3]: 26%
- Percent Loss of Viability (Alexander staining of pollen, F1 plant POP 12 X POV 25 No. 2) [3]: 19%

B2: recombinant onchocystatin (OV7), cysteine protease inhibitor (protein)
chain: T2 chain
- Average Pollen Tube Length (tobacco pollen in vitro, 42 µM papain + 30 µM onchocystatin) [4]: 80 µm
- Pollen Germination (tobacco pollen in vitro, 42 µM papain + 30 µM onchocystatin) [4]: 69%

B3: papain (cysteine protease) (protein)
chain: T1 sequence (looked up)
- percentage of papain protease activity (substrate Pyr-Phe-Leu-pNA, 410 nm) relative to the non-transformed control plant extract [5]: 2%
- percentage of papain protease activity (substrate Pyr-Phe-Leu-pNA, 410 nm) relative to the non-transformed control plant extract [6]: 53% to 61%

Source: patent US20030182691A1
